# Measured values reported in patent US20210238279A1 (Johns Hopkins, published 2021).
# Positions count from the first letter of the chain named.
# B1: mAb20 (antibody, V domains shown)
# VH: QIQLVQSGPELKKPGETVKISCKASGYIFTNYPMHWVKQAPGKGLKWMGWINTYSGVPTHADDFKGRFAFSLETSANSAFLQINNLKNEDTATYFCTRSRITPTGGYAMDYWGQGTSVTVSS
# VL: DVVMTQTPLSLPVSLGDQASISCRSSQSLVHSNGNTYLHWYLQKPGQSPNLLISKVSNRFSGVPERFSGSGSGTDFTLKISRVEAEDLGVYFCSQNTHVPWTFGGGTKLEIKR
# notes: Mouse hybridoma mAb purified on protein A/G; In some assays it was labelled with Alexa Fluor 488 or terbium cryptate; also called monoclonal antibody mAb20; anti-ZnT8 mAb20
# B2: mAb39 (antibody, V domains shown)
# VH: QVQLQQPGAELVKPGASVKLSCKASGYSFTTYWMHWVKQRPGQGLEWVGDINPRNGRTNYNEKSKSKATLTVDISSSTVYMQVSSLTSEDSAVYYCAIWSGAMDYWGPGTSVTVSS
# VL: B1 VL with A19P, R24K, S32N, N50K, S54Y, E65D, N96T, W101P
# notes: Mouse hybridoma mAb purified on protein A/G; In some assays it was labelled with Alexa Fluor 555 or d2; also called monoclonal antibody mAb39; anti-ZnT8 mAb39
# Tests used:
# human ZnT8-His = biological target: T1, human ZnT8-His (human, UniProt Q8IWU4-2 1-320, limits assumed); test: ELISA on ZnT8-His on Ni-NTA plate, native against unfolded with 2% SDS
# T1 construct: Over-expressed in HEK293 cells, solubilized with DDM and immobilized on Ni-NTA plates (native or unfolded with 2% SDS), or SDS-denatured on immunoblots; also called human ZnT8 with C-terminal poly-histidine tag; not shown: C-terminal poly-histidine tag
# T1 sequence (looked up): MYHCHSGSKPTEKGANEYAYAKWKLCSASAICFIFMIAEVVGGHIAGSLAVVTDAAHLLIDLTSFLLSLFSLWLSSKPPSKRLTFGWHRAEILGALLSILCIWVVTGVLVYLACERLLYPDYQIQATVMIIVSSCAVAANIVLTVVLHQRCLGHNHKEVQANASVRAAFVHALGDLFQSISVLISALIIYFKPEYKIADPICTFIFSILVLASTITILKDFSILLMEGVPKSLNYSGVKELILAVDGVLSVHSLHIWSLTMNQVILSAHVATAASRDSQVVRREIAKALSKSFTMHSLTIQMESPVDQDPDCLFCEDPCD
# Description: FIG. 4A-4C. mAb binding stabilized ZnT8 folding (FIG. 4A) mAb binding to folded or denatured ZnT8. ZnT8-His in detergent micelles was immobilized to a Ni-NTA plate in replication w/o SDS denaturation. ELISAs against denatured (triangle) and non-denatured ZnT8 (circle) were compared for mAb20 and mAb39 as indicated. CTDA and MSA were used as a positive and negative control, respectively. Error bars are standard deviations. (FIG. 4B) mAb binding to folded ZnT8-GFP in detergent micelles. mAb20 or mAb39 was mixed with ZnT8-GFP and then the binding mixture was analyzed by size-exclusion HPLC with GFP-fluorescence detection. […] (FIG. 4C) Protection of ZnT8 unfolding. Aliquots of ZnT8 in detergent micelles were incubated with Fab20 (red), Fab39 (magenta), or Fab20+Fab39 (brown). […] After a designated time of heat denaturation as indicated, protein aggregates were removed by ultracentrifugation, and the amount of remaining ZnT8 in the supernatant was detected by mAb20 immunoblotting (upper panel). […]
# Folding dependence. To compare the difference in mAb bindings to native and denatured ZnT8, we used 2% SDS to unfold immobilized ZnT8-His on a Ni-NTA plate, and then compared denatured ELISA readouts with non-denatured replicates. The native readout of mAb20 was about two-fold higher than the denatured readout (FIG. 4A), indicating a moderate selectivity for folded conformation over unfolded ZnT8. […]
# [1] = biological target: T2, monomeric human ZnT8 CTD-His antigen (aa 275-369) (human, UniProt Q8IWU4 275-369); test: ELISA, monomeric CTD-His on Ni-NTA plate
# T2 construct: range 275-369; Immobilized on Ni-NTA plates through the C-terminal poly-histidine tag; also called CTD-His monomer; monomeric CTD antigen; not shown: C-terminal poly-histidine tag
# T2 sequence (looked up): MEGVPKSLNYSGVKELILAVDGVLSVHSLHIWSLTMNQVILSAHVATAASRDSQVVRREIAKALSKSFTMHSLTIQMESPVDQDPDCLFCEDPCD
# Description: Error bars represent standard deviations. (FIG. 1B) ELISA against a monomeric CTD antigen immobilized to Ni-NTA plate via a C-terminal poly-histidine tag. CTDA and NTDA were used a positive and negative control, respectively (Z>0.5).
# Materials and Methods Generating hybridoma. Four pairs of male/female homozygous Slc30a8-1- mice were immunized by weekly intraperitoneal injections of a human ZnT8 antigen (the R325 variant) in reconstituted proteoliposomes. All experiments with mice were approved by the Institutional Animal Care and Use Committee of Johns Hopkins University School of Medicine. Serum antibody titering and validation of anti-ZnT8 specificity by CRISPR/Cas9 ZnT8-knockout were described previously (36). Following a final immunization boost, spleens were isolated. Splenocytes were fused with an immortalized myeloma cell line Sp2/0-Ag14 (CRL-1581, ATCC) at a 4:1 splenocytes-to-myeloma ratio by adding 1 ml of 50% PEG1500 (w/v, Roche) to the cell mixture drop-by-drop over 1 min (37). […] Bound antibodies were detected by an HRP-conjugated goat anti-mouse secondary antibody (Invitrogen, cat. #62-6500) with 1:3000 dilutions in assay buffer, followed by ABTS colorimetric reaction (Life Technologies) and signal readout at 415 nm on a plate reader (Molecular Device). […]
Binder,ratio of native to SDS-denatured ELISA readout (human ZnT8-His),binding result [1]
B1,~2 fold,–
B2,–,no binding
